Data: patent US20240400696A1

Molecular target: CD3
Assay: Octet, crude lysate

CD3, sequence (P07766 23-126): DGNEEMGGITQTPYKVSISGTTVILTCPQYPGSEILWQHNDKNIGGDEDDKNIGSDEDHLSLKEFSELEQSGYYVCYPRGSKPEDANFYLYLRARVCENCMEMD

Kd [nM] | Binder
9.8 | AC3425 (bispecific antibody, V domains shown) VH: EVQLLESGGGIVQPGGSLKLSCAASGFTFNTYAMNWVRQAPGKGLEWVARIRSKYNNYATYYADSVKDRFTISRDDSKNTVDLQMNNLKTEDTAVYYCVRHENFGNSYVSWFAHWGQGTLVTVSS VL: ELVVTQEPSLTVSPGGTVTLTCRSSNGAVTSSNYANWVQQKPGQAPRGLIGGTNKRAPGTPARFSGSLLGGKAALTLSGVQPEDEAVYYCALWYPNLWVFGGGTKLTVL
18.1 | AC3368 (bispecific antibody, V domains shown) VH: EVQLLESGGGIVQPGGSLKLSCAASGFTFNTYAMNWVRQAPGKGLEEVARIRSKYNNYATYYADSVKDRFTISRDDSKNTVYLQMNNLKTEDTAVYYCVRHENFGNSYVSWFAHWGQGTLVTVSS VL: ELVVTQEPSLTVSPGGTVTLTCRSSNGAVTSSNYANWVQQKPGQAPRGLIGGTNKRAPGTPARFSGSLLGGKAALTLSGVQPEDEAVYYCALWYPNLWVFGGGTKLTVL
9.6 | AC3427 (bispecific antibody, V domains shown) VH: EVQLLESGGGIVQPGGSLKLSCAASGFTFNTYAMNWVRQAPGKGLEWVARIRSKYNNYATYYADSVKDRFTISRDDSKNTVSLQMNNLKTEDTAVYYCVRHENFGNSYVSWFAHWGQGTLVTVSS VL: ELVVTQEPSLTVSPGGTVTLTCRSSNGAVTSSNYANWVQQKPGQAPRGLIGGTNKRAPGTPARFSGSLLGGKAALTLSGVQPEDEAVYYCALWYPNLWVFGGGTKLTVL
165 | AC3370 (bispecific antibody, V domains shown) VH: EVQLLESGGGIVQPGGSLKLSCAASGFTFNTYAMNWVRQAPGKGLEWEARIRSKYNNYATYYADSVKDRFTISRDDSKNTVYLQMNNLKTEDTAVYYCVRHENFGNSYVSWFAHWGQGTLVTVSS VL: ELVVTQEPSLTVSPGGTVTLTCRSSNGAVTSSNYANWVQQKPGQAPRGLIGGTNKRAPGTPARFSGSLLGGKAALTLSGVQPEDEAVYYCALWYPNLWVFGGGTKLTVL
40.2 | AC3367 (bispecific antibody, V domains shown) VH: EVQLLESGGGIVQPGGSLKLSCAASGFTFNTYAMNWVRQAPGKGLEDVARIRSKYNNYATYYADSVKDRFTISRDDSKNTVYLQMNNLKTEDTAVYYCVRHENFGNSYVSWFAHWGQGTLVTVSS VL: ELVVTQEPSLTVSPGGTVTLTCRSSNGAVTSSNYANWVQQKPGQAPRGLIGGTNKRAPGTPARFSGSLLGGKAALTLSGVQPEDEAVYYCALWYPNLWVFGGGTKLTVL
8.3 | AC3369 (bispecific antibody, V domains shown) VH: EVQLLESGGGIVQPGGSLKLSCAASGFTFNTYAMNWVRQAPGKGLEWAARIRSKYNNYATYYADSVKDRFTISRDDSKNTVYLQMNNLKTEDTAVYYCVRHENFGNSYVSWFAHWGQGTLVTVSS VL: ELVVTQEPSLTVSPGGTVTLTCRSSNGAVTSSNYANWVQQKPGQAPRGLIGGTNKRAPGTPARFSGSLLGGKAALTLSGVQPEDEAVYYCALWYPNLWVFGGGTKLTVL
5.7 | AC3373 (bispecific antibody, V domains shown) VH: EVQLLESGGGIVQPGGSLKLSCAASGFTFNTYAMNWVRQAPGKGLEWTARIRSKYNNYATYYADSVKDRFTISRDDSKNTVYLQMNNLKTEDTAVYYCVRHENFGNSYVSWFAHWGQGTLVTVSS VL: ELVVTQEPSLTVSPGGTVTLTCRSSNGAVTSSNYANWVQQKPGQAPRGLIGGTNKRAPGTPARFSGSLLGGKAALTLSGVQPEDEAVYYCALWYPNLWVFGGGTKLTVL
34300 | AC3374 (bispecific antibody, V domains shown) VH: EVQLLESGGGIVQPGGSLKLSCAASGFTFNTYAMNWVRQAPGKGLEWWARIRSKYNNYATYYADSVKDRFTISRDDSKNTVYLQMNNLKTEDTAVYYCVRHENFGNSYVSWFAHWGQGTLVTVSS VL: ELVVTQEPSLTVSPGGTVTLTCRSSNGAVTSSNYANWVQQKPGQAPRGLIGGTNKRAPGTPARFSGSLLGGKAALTLSGVQPEDEAVYYCALWYPNLWVFGGGTKLTVL
4.9 | AC3434 (bispecific antibody, V domains shown) VH: EVQLLESGGGIVQPGGSLKLSCAASGFTFNTYAMNWVRQAPGKGLEWVARIRSKYNNYATYYADSVKDRFTISRDDSKNTVYLQMNNLKTEDTAVYYCVRHENFGNSYVSWFAHWGQGTLVTVSS VL: ELVVTQEPSLTVSPGGTVTLTCRSSNGAVTSSNYANWVQQKPGQAPRGLIGGTNKRAPGTPARFSGSLLEGKAALTLSGVQPEDEAVYYCALWYPNLWVFGGGTKLTVL
121 | AC3426 (bispecific antibody, V domains shown) VH: EVQLLESGGGIVQPGGSLKLSCAASGFTFNTYAMNWVRQAPGKGLEWVARIRSKYNNYATYYADSVKDRFTISRDDSKNTVGLQMNNLKTEDTAVYYCVRHENFGNSYVSWFAHWGQGTLVTVSS VL: ELVVTQEPSLTVSPGGTVTLTCRSSNGAVTSSNYANWVQQKPGQAPRGLIGGTNKRAPGTPARFSGSLLGGKAALTLSGVQPEDEAVYYCALWYPNLWVFGGGTKLTVL
8.3 | AC3438 (bispecific antibody, V domains shown) VH: EVQLLESGGGIVQPGGSLKLSCAASGFTFNTYAMNWVRQAPGKGLEWVARIRSKYNNYATYYADSVKDRFTISRDDSKNTVYLQMNNLKTEDTAVYYCVRHENFGNSYVSWFAHWGQGTLVTVSS VL: ELVVTQEPSLTVSPGGTVTLTCRSSNGAVTSSNYANWVQQKPGQAPRGLIGGTNKRAPGTPARFSGSNLGGKAALTLSGVQPEDEAVYYCALWYPNLWVFGGGTKLTVL
7.1 | AC3429 (bispecific antibody, V domains shown) VH: EVQLLESGGGIVQPGGSLKLSCAASGFTFNTYAMNWVRQAPGKGLEWVARIRSKYNNYATYYADSVKDRFTISRDDSKNTVYLQMNQLKTEDTAVYYCVRHENFGNSYVSWFAHWGQGTLVTVSS VL: ELVVTQEPSLTVSPGGTVTLTCRSSNGAVTSSNYANWVQQKPGQAPRGLIGGTNKRAPGTPARFSGSLLGGKAALTLSGVQPEDEAVYYCALWYPNLWVFGGGTKLTVL
71.5 | AC3371 (bispecific antibody, V domains shown) VH: EVQLLESGGGIVQPGGSLKLSCAASGFTFNTYAMNWVRQAPGKGLEWGARIRSKYNNYATYYADSVKDRFTISRDDSKNTVYLQMNNLKTEDTAVYYCVRHENFGNSYVSWFAHWGQGTLVTVSS VL: ELVVTQEPSLTVSPGGTVTLTCRSSNGAVTSSNYANWVQQKPGQAPRGLIGGTNKRAPGTPARFSGSLLGGKAALTLSGVQPEDEAVYYCALWYPNLWVFGGGTKLTVL
4.8 | AC3430 (bispecific antibody, V domains shown) VH: EVQLLESGGGIVQPGGSLKLSCAASGFTFNTYAMNWVRQAPGKGLEWVARIRSKYNNYATYYADSVKDRFTISRDDSKNTVYLQMNSLKTEDTAVYYCVRHENFGNSYVSWFAHWGQGTLVTVSS VL: ELVVTQEPSLTVSPGGTVTLTCRSSNGAVTSSNYANWVQQKPGQAPRGLIGGTNKRAPGTPARFSGSLLGGKAALTLSGVQPEDEAVYYCALWYPNLWVFGGGTKLTVL
7.3 | AC3436 (bispecific antibody, V domains shown) VH: EVQLLESGGGIVQPGGSLKLSCAASGFTFNTYAMNWVRQAPGKGLEWVARIRSKYNNYATYYADSVKDRFTISRDDSKNTVYLQMNNLKTEDTAVYYCVRHENFGNSYVSWFAHWGQGTLVTVSS VL: ELVVTQEPSLTVSPGGTVTLTCRSSNGAVTSSNYANWVQQKPGQAPRGLIGGTNKRAPGTPARFSGSSLGGKAALTLSGVQPEDEAVYYCALWYPNLWVFGGGTKLTVL
4.6 | AC3433 (bispecific antibody, V domains shown) VH: EVQLLESGGGIVQPGGSLKLSCAASGFTFNTYAMNWVRQAPGKGLEWVARIRSKYNNYATYYADSVKDRFTISRDDSKNTVYLQMNNLKTEDTAVYYCVRHENFGNSYVSWFAHWGQGTLVTVSS VL: ELVVTQEPSLTVSPGGTVTLTCRSSNGAVTSSNYANWVQQKPGQAPRGLIGGTNKRAPGTPARFSGSLQGGKAALTLSGVQPEDEAVYYCALWYPNLWVFGGGTKLTVL
5.9 | AC3428 (bispecific antibody, V domains shown) VH: EVQLLESGGGIVQPGGSLKLSCAASGFTFNTYAMNWVRQAPGKGLEWVARIRSKYNNYATYYADSVKDRFTISRDDSKNTVYLQMNELKTEDTAVYYCVRHENFGNSYVSWFAHWGQGTLVTVSS VL: ELVVTQEPSLTVSPGGTVTLTCRSSNGAVTSSNYANWVQQKPGQAPRGLIGGTNKRAPGTPARFSGSLLGGKAALTLSGVQPEDEAVYYCALWYPNLWVFGGGTKLTVL
3.2 | AC3437 (bispecific antibody, V domains shown) VH: EVQLLESGGGIVQPGGSLKLSCAASGFTFNTYAMNWVRQAPGKGLEWVARIRSKYNNYATYYADSVKDRFTISRDDSKNTVYLQMNNLKTEDTAVYYCVRHENFGNSYVSWFAHWGQGTLVTVSS VL: ELVVTQEPSLTVSPGGTVTLTCRSSNGAVTSSNYANWVQQKPGQAPRGLIGGTNKRAPGTPARFSGSKLGGKAALTLSGVQPEDEAVYYCALWYPNLWVFGGGTKLTVL
6.1 | AC3435 (bispecific antibody, V domains shown) VH: EVQLLESGGGIVQPGGSLKLSCAASGFTFNTYAMNWVRQAPGKGLEWVARIRSKYNNYATYYADSVKDRFTISRDDSKNTVYLQMNNLKTEDTAVYYCVRHENFGNSYVSWFAHWGQGTLVTVSS VL: ELVVTQEPSLTVSPGGTVTLTCRSSNGAVTSSNYANWVQQKPGQAPRGLIGGTNKRAPGTPARFSGSLDGGKAALTLSGVQPEDEAVYYCALWYPNLWVFGGGTKLTVL
5.2 | AC3431 (bispecific antibody, V domains shown) VH: EVQLLESGGGIVQPGGSLKLSCAASGFTFNTYAMNWVRQAPGKGLEWVARIRSKYNNYATYYADSVKDRFTISRDDSKNTVYLQMNYLKTEDTAVYYCVRHENFGNSYVSWFAHWGQGTLVTVSS VL: ELVVTQEPSLTVSPGGTVTLTCRSSNGAVTSSNYANWVQQKPGQAPRGLIGGTNKRAPGTPARFSGSLLGGKAALTLSGVQPEDEAVYYCALWYPNLWVFGGGTKLTVL
8.9 | AC3439 (bispecific antibody, V domains shown) VH: EVQLLESGGGIVQPGGSLKLSCAASGFTFNTYAMNWVRQAPGKGLEWVARIRSKYNNYATYYADSVKDRFTISRDDSKNTVYLQMNNLKTEDTAVYYCVRHENFGNSYVSWFAHWGQGTLVTVSS VL: ELVVTQEPSLTVSPGGTVTLTCRSSNGAVTSSNYANWVQQKPGQAPRGLIGGTNKRAPGTPARFSGSTLGGKAALTLSGVQPEDEAVYYCALWYPNLWVFGGGTKLTVL
11.2 | AC3372 (bispecific antibody, V domains shown) VH: EVQLLESGGGIVQPGGSLKLSCAASGFTFNTYAMNWVRQAPGKGLEWSARIRSKYNNYATYYADSVKDRFTISRDDSKNTVYLQMNNLKTEDTAVYYCVRHENFGNSYVSWFAHWGQGTLVTVSS VL: ELVVTQEPSLTVSPGGTVTLTCRSSNGAVTSSNYANWVQQKPGQAPRGLIGGTNKRAPGTPARFSGSLLGGKAALTLSGVQPEDEAVYYCALWYPNLWVFGGGTKLTVL
